Where two headings read alike, the source gives them in different places. Each block holds one binder with its values, some of them ahead of it.
Experiments:
[1] = molecular target: T1, human Claudin18.2 (CLDN18.2), full length, on cells (human); experiment: FACS on NUGC4 cells
T1 construct: also called CLDN18.2-FL; HEK293-CLDN18.2 cells
From the text: (§1) Human gastric cancer cells NUGC4 and stably transfected cells CHO-K1-CLDN18.1 (prepared in Example 5) were used respectively, to verify the specificity and affinity of the anti-CLDN18.2 antibodies above at the cellular level by FAGS technology. After antibody affinity maturation and screening in vitro, each antibody can bind to the CLDN18.2 target on NUGC4 cells, but not to CHO-K1-CLDN18.1 cells, as compared with the original 3CHI antibody.

[2] = molecular target: T1, human Claudin18.2 (CLDN18.2), full …; experiment: cell-based or functional assay
[3] = molecular target: T1, human Claudin18.2 (CLDN18.2), full …; experiment: cell-based or functional assay; remark: listed apart in the source
[4] = molecular target: T1, human Claudin18.2 (CLDN18.2), full …; experiment: cell-based or functional assay; remark: listed apart in the source
[5] = molecular target: T1, human Claudin18.2 (CLDN18.2), full …; experiment: cell-based or functional assay; remark: listed apart in the source
[6] = molecular target: T2, human Claudin18.1 (CLDN18.1), full length, on cells (human, UniProt P56856 1-261); experiment: FACS on CHO-K1-CLDN18.1 cells
T2 construct: HEK293-CLDN18.1 cells carry a fusion with green fluorescent protein (ZsGreen); CHO-K1-CLDN18.1 cells carry pcDNA3.1-CLDN18.1; The cell line is named under assay; also called CLDN18.1-FL; HEK293-CLDN18.1 cells
From the text: as §1

[7] = molecular target: T1, human Claudin18.2 (CLDN18.2), full …; experiment: FACS on NUGC4 cells, positive rate
Description: (§2) The effect of the Fc-mutated humanized antibody on the binding to the target CLDN18.2 was identified by FACS. NUGC4 cells were digested using the gastric cancer cell digestion solution at 37° C. for 15 minutes; terminated by the complete culture medium, centrifuged at 1000 rpm for 5 minutes, the supernatant was discarded; the cells were resuspended with 2% fetal bovine serum-PBS diluent, the cells were adjusted to 1×10⁶ cells/ml, 100 μl of cell suspension was added to each well of the 96-well U-shaped-bottom plate; the antibody was diluted with 2% fetal bovine serum-PBS to final concentrations of 5 μg/ml, 1 μg/ml, 0.2 μg/ml, 0.04 μg/ml and 0.008 μg/ml, mixed with the cells in equal volume, incubated at 4° C. for 1 hour; centrifuged at 1000 rpm for 5 minutes, the supernatant was discarded; 200 μl of Cell Stain Buffer (Biolegend) was added to each well to wash twice, centrifuged at 1000 rpm for 5 minutes at each time and the supernatant was discarded; 100 μl of PE-anti human Fc antibody (Biolegend) was added, incubated at 4° C. for 1 hour; washed twice using Cell Stain Buffer (Biolegend), centrifuged at 1000 rpm for 5 minutes at each time and the supernatant was discarded. 300 μl of Cell Stain Buffer was added to resuspend the cells, detected with BD FACS Jazz flow analyzer.

[8] = molecular target: T1, human Claudin18.2 (CLDN18.2), full …; experiment: FACS on CHO-K1-CLDN18.2 cells, Graphpad fit
Description: (§3) CHO-K1-CLDN18.2 cells and CHO-K1-CLDN18.1 cells (prepared in Example 5) were digested with gastric cancer cell digestion solution at 37° C. for 15 minutes, respectively; terminated with complete culture medium, centrifuged at 1000 rpm for 5 minutes, the supernatant was discarded; the cells were resuspended with 2% fetal bovine serum-PBS diluent, the cells were adjusted to 1×10⁶ cells/ml, 100 μl of cell suspension was added to each well of the 96-well U-shaped-bottom plate; 2% fetal bovine serum-PBS was used to dilute the humanized antibody and the control antibody to final concentrations of 10 μg/ml, 2 μg/ml, 0.4 μg/ml, 0.08 μg/ml and 0.016 μg/ml, respectively, mixed well with the cells in equal volume, incubated at 4° C. for 1 hour; centrifuged at 1000 rpm for 5 minutes, the supernatant was discarded; 200 μl Cell Stain Buffer (Biolegend) was added to each well to wash twice, centrifuged at 1000 rpm for 5 minutes at each time and the supernatant was discarded; 100 μl of PE-anti human Fc antibody (Biolegend) was added, incubated at 4° C. for 1 hour; washed with Cell Stain Buffer (Biolegend) twice, centrifuged at 1000 rpm for 5 minutes at each time and the supernatant was discarded. 300 μl Cell Stain Buffer was added to resuspend the cells, and detected by BD FACS Jazz flow cytometry analyzer. […]

[9] = molecular target: T1, human Claudin18.2 (CLDN18.2), full …; experiment: cellular ELISA on fixed HEK293-CLDN18.2 cells
Description: HEK293-CLDN18.1 and HEK293-CLDN18.2 cells were resuscitated two weeks in advance, cultured with DMEM complete culture medium containing 10% fetal bovine serum at 37° C., 5% CO₂. When the cells grew to 80%-90% confluency, they were digested with 0.5 mM EDTA-PBS (Sigma) at room temperature, centrifuged at 1000 rpm for 5 minutes, the supernatant was discarded. Cells were resuspended in DMEM complete culture medium, the cell concentration was adjusted to 6×10⁵ cells/ml. Cells were plated on 96-well cell plates (Corning) pre-coated with polylysine at 2.5 μg/well, 100 μl per well, incubated at 37° C., 5% CO₂ for 24 hours, making cells evenly and completely plated on the bottom of the well. The supernatant was aspirated, and the cells were fixed with 4% paraformaldehyde at room temperature for 20 minutes, washed 3 times with 200 μl PBS, 2 minutes at each time. The well plates were blocked with 200 μl of 3% BSA-PBS at 37° C. for 1 hour. Each chimeric antibody was diluted with 3% BSA-PBS to a concentration of 6 μg/ml, and diluted in a 6-fold gradient to a total of 7 concentrations. At the same time, IMAB362-similar-hG1 diluted in the same concentration gradient as the positive control, and human IgG1, kappa isotype control antibody (hereinafter referred to as Isotype, provided by CrownBio (Taicang) Co., Ltd.) as the negative control were added to HEK293-CLDN18.2 and HEK293-CLDN18.1 cell plates, respectively. The cells were incubated at 37° C. for 1 hour, washed 5 times with PBS. Incubation with HRP-anti human IgG (Jackson) diluted 1:10000 in blocking solution was performed at 37° C. for 1 hour followed by washing 5 times with PBS. 100 μl of TMB one-component color developing solution was added, protected from light at room temperature for 5-10 minutes, terminated with 50 μl of 2M sulfuric acid, OD450 was read on the microplate reader. Data processing: the original data was put into GraphPad 5.0 software for plotting and calculation.

[10] = molecular target: T1, human Claudin18.2 (CLDN18.2), full …; experiment: FACS on CHO-K1-CLDN18.2 cells, relative Kd from Graphpad fit
Description: as §3

[11] = molecular target: T2, human Claudin18.1 (CLDN18.1), full …; experiment: FACS on CHO-K1-CLDN18.1 cells, PE-anti human Fc, MFI
Description: CHO-K1-CLDN18.2 cells and CHO-K1-CLDN18.1 cells (prepared in Example 5) were digested with gastric cancer cell digestion solution at 37° C. for 15 minutes, respectively; terminated with complete culture medium, centrifuged at 1000 rpm for 5 minutes, the supernatant was discarded; the cells were resuspended with 2% fetal bovine serum-PBS diluent, the cells were adjusted to 1×10⁶ cells/ml, 100 μl of cell suspension was added to each well of the 96-well U-shaped-bottom plate; 2% fetal bovine serum-PBS was used to dilute the humanized antibody and the control antibody to final concentrations of 10 μg/ml, 2 μg/ml, 0.4 μg/ml, 0.08 μg/ml and 0.016 μg/ml, respectively, mixed well with the cells in equal volume, incubated at 4° C. for 1 hour; centrifuged at 1000 rpm for 5 minutes, the supernatant was discarded; 200 μl Cell Stain Buffer (Biolegend) was added to each well to wash twice, centrifuged at 1000 rpm for 5 minutes at each time and the supernatant was discarded; 100 μl of PE-anti human Fc antibody (Biolegend) was added, incubated at 4° C. for 1 hour; washed with Cell Stain Buffer (Biolegend) twice, centrifuged at 1000 rpm for 5 minutes at each time and the supernatant was discarded. 300 μl Cell Stain Buffer was added to resuspend the cells, and detected by BD FACS Jazz flow cytometry analyzer.

[12] = molecular target: T3, antigen protein Claudin18.2-His (human, UniProt P56856-2 1-261, limits assumed); experiment: BLI (Fortebio Octet RED96), antibody on AHC sensor, Claudin18.2-His in solution, 37 °C
T3 construct: also called CLDN18.2 protein
Description: Next, antibodies were immobilized by the AHC sensor, and then combined with different concentrations of antigens, and determination of the affinity was performed according to the manual of Octet RED96.

[13] = molecular target: T3, antigen protein Claudin18.2-His; experiment: BLI (Fortebio Octet RED96), antibody on AHC sensor, CLDN18.2 protein in solution, 37 °C
Description: Another method is to verify the affinity of the humanized antibody above at the protein level. The antibody was immobilized by the AHC sensor, and combined with different concentrations of antigens, and affinity determination was performed according to the manual of Octet RED96.

[14] = molecular target: T1, human Claudin18.2 (CLDN18.2), full …; experiment: FACS on NUGC4 cells; remark: listed apart in the source
Description: as §2

MFI (CLDN18.2) [1]: 2180 MFI
in-vitro ADCC activity, Jurkat-CD16A/NF luciferase reporter, EC50 [2]: 0.72 nM
in-vitro ADCC activity, Jurkat-CD16A/NF luciferase reporter, Top [2]: 216000
ADCC activity by luciferase labeling, EC50 [3]: 0.69 nM
ADCC activity by luciferase labeling, Top [3]: 63600
ADCC activity by luciferase labeling, EC50 [4]: 1.49 nM
ADCC activity by luciferase labeling, Top [4]: 89600
MFI (CLDN18.1) [6]: 59 MFI
EC50 [7]: 9.78 nM
Top (%) [7]: 58.8%
Bmax (MFI) [8]: 8220 MFI
EC50 [9]: 0.09 nM
Kd [10]: 28.7 nM
binding result [11]: no binding
Kd [12]: 7.14 nM
koff [12]: 0.000399 s⁻¹
kon [12]: 55900 M⁻¹ s⁻¹
Kd [13]: 9.44 nM
koff [13]: 0.00222 s⁻¹
kon [13]: 235000 M⁻¹ s⁻¹
B1: IMAB362-similar-hG1 (antibody, human IgG1, kappa)
heavy: not shown
light: DIVMTQSPSSLTVTAGEKVTMSCKSSQSLLNSGNQKNYLTWYQQKPGQPPKLLIYWASTRESGVPDRFTGSGSGTDFTLTISSVQAEDLAVYYCQNDYSYPFTFGSGTKLEIKRTVAAPSVFIFPPSDEQLKSGTASVVCLLNNFYPREAKVQWKVDNALQSGNSQESVTEQDSKDSTYSLSSTLTLSKADYEKHKVYACEVTHQGLSSPVTKSFNRGEC
notes: Human IgG1/kappa format; also called positive control antibody; positive antibody
ADCC cytotoxicity by LDH method, PBMC effectors, EC50 [5]: 2.47 nM

fold increase of binding activity over IMAB362-similar-hG1 [14]: 15 fold
ADCC activity by luciferase labeling, EC50 [4]: 0.17 nM
ADCC activity by luciferase labeling, Top [4]: 100000
EC50 [7]: 0.76 nM
Top (%) [7]: 92.4%
B2: Hu330-1-5M (antibody, human IgG1, kappa)
heavy: EVQLVESGGGLVQPGGSLRLSCAASGFGFSDYGMAWVRQAPGKGLEWVSFISNSAYSIYYADTVTGRFTISRDNAKNSLYLQMNSLRAEDTAVYYCARLGRGNSFAYWGQGTLVTVSSASTKGPSVFPLAPSSKSTSGGTAALGCLVKDYFPEPVTVSWNSGALTSGVHTFPAVLQSSGLYSLSSVVTVPSSSLGTQTYICNVNHKPSNTKVDKKVEPKSCDKTHTCPPCPAPELLGGPSVFLLPPKPKDTLMISRTPEVTCVVVDVSHEDPEVKFNWYVDGVEVHNAKTKPPEEQYNSTLRVVSILTVLHQDWLNGKEYKCKVSNKALPAPIEKTISKAKGQPREPQVYTLPPSRDELTKNQVSLTCLVKGFYPSDIAVEWESNGQPENNYKTTPLVLDSDGSFFLYSKLTVDKSRWQQGNVFSCSVMHEALHNHYTQKSLSLSPGK
light: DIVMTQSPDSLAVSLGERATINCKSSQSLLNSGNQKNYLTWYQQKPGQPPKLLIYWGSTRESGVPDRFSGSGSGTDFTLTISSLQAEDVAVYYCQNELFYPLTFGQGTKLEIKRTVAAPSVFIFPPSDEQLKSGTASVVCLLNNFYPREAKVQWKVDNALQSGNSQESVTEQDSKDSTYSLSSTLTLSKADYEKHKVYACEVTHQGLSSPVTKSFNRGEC
notes: also called Fc mutant of the humanized antibody; Fc-mutated humanized antibody
ADCC cytotoxicity by LDH method, PBMC effectors, EC50 [5]: 0.31 nM

— patent US20220119517A1 (NANJING SANHOME PHARMACEUTICAL, published 2022)
